± gives the uncertainty stated by the source.
Experiment: protein stability index of a GFP-peptide fusion (yeast GPS) (PSI 1-4); higher = more stable; sorted into four equal gates, so the index is relative within each strain
Method in brief: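 Plasmids isolated from each sorting gate were PCR-amplified and Illumina-sequenced, and barcodes assigned the reads to strains. The gates, four of equal size, were set by GFP/Cherry fluorescence ratio on mid-log cultures in leucine-free medium. These cultures were yeast carrying a pooled library of tiled 17-residue yeast protein peptides fused downstream of GFP on a plasmid that also expresses Cherry. The protein stability index is the sum of every gate's read frequency times its gate number.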

Sequence	protein stability index (doa10∆)	protein stability index (pdr5∆)	protein stability index (ubr1∆)	protein stability index (san1∆)
KLSNIWMQRQLIKGDAG [SRB2]	2.93 ± 0.23	1.16 ± 0.14	1.25 ± 0.26	
QPTGLLKGLNGFPSAPQ [YMR153W/NUP53]	3.39 ± 0.14	3.3 ± 0.12	3.18 ± 0.1	3.25 ± 0.11
FNVDDVLKFTFTGEKPI [MED8]	3.16 ± 0.094	3.02 ± 0.097	2.98 ± 0.068	3.29 ± 0.048
QDNKQLYQIWIVMVWLK [YDL116W/NUP84]	2.62 ± 0.058	2.62 ± 0.049	2.78 ± 0.031	3.02 ± 0.065
TSILELGQLYVTMGAKD [RPN6]	3.23 ± 0.11	2.85 ± 0.083	2.96 ± 0.059	2.96 ± 0.071
DLKRFVDESLLSTLPAG [QCR2]	3.02 ± 0.067	3.23 ± 0.085	3 ± 0.051	2.52 ± 0.099
RDLGDDRVFNVPTIGVV [YJR042W/NUP85]				3.41 ± 0.19
SDRECPKCHSRENVFFQ [RPB9]	2.88 ± 0.062	2.74 ± 0.061	2.79 ± 0.04	2.47 ± 0.058
KSLDEQLLLLSDERAKL [LRP1]	2.73 ± 0.095	3.2 ± 0.1	2.91 ± 0.088	2.84 ± 0.046
TSVIQDLSEKILNDIET [BRR2]	2.89 ± 0.1	3.3 ± 0.11	3.09 ± 0.076	3.21 ± 0.061
GAIILTKMDGHARGGGA [SRP54]	2.88 ± 0.24	3.13 ± 0.16		2.95 ± 0.13
TFLPSYMKFSNKYLELC [RRI2]	2.25 ± 0.052	2.35 ± 0.052	2.37 ± 0.04	2.37 ± 0.073
VLGFLQLFHNLISIHSR [YJL039C/NUP192]	2.67 ± 0.068	2.89 ± 0.059	2.98 ± 0.048	2.85 ± 0.056
VTEMSNNANVLGGEIND [BRR2]	3.18 ± 0.11	3.18 ± 0.12	3.15 ± 0.064	3.51 ± 0.085
RIKLATTSERVSNENKK [RRI1]	2.88 ± 0.063	3.08 ± 0.071	3.1 ± 0.11	2.94 ± 0.066
LLFWTDPRNLVNQTGST [YCG1]	2.41 ± 0.065	2.66 ± 0.064	2.81 ± 0.038	2.83 ± 0.055
ALEEAKLSDNISICMIL [YDL116W/NUP84]	2.87 ± 0.076	3.02 ± 0.073	3.21 ± 0.043	3.04 ± 0.06
TAKLQMRRFILGTTEGD [RPN14]	1.41 ± 0.27	1.45 ± 0.095		
MEQCKQRYQDLSQQQKD [YIL149C/MLP2]	3.33 ± 0.086	3.3 ± 0.074	2.95 ± 0.048	2.95 ± 0.067
LEQVEFEKNTILQQRSK [MED4]	2.94 ± 0.22	3.44 ± 0.13	3.27 ± 0.1	2.77 ± 0.11

Sequence	protein stability index (doa10∆)	protein stability index (pdr5∆)	protein stability index (ubr1∆)	protein stability index (san1∆)
YMQRTVEEAHDFNMKLA [RPB2]	3.09 ± 0.098	3.04 ± 0.1	2.99 ± 0.062	3.02 ± 0.075
QFNEFIQIMANIDQEGS [PGD1]	2.29 ± 0.073	2.37 ± 0.067	2.54 ± 0.049	2.33 ± 0.072
TSGTSSEQFNVWDWNNW [GAL11]	2.56 ± 0.086	3.11 ± 0.11	2.73 ± 0.096	2.71 ± 0.073
ESVPTPANAEPQAVTIT [ITC1]	2.88 ± 0.084	2.92 ± 0.075	3.18 ± 0.16	2.62 ± 0.063
PTGKEEGDGAKAAISFG [YJL041W/NSP1]	3.37 ± 0.11	3.04 ± 0.1	3.38 ± 0.069	3.35 ± 0.1
PFREFLQVLIDQLDSEA [ECM29]	3.38 ± 0.095	2.6 ± 0.12	3.01 ± 0.065	3.08 ± 0.089
CSNESFASIPVSNSISR [SNU114]	2.55 ± 0.069	2.67 ± 0.057	2.7 ± 0.062	2.46 ± 0.078
YSTCPSETDLNDIPLGS [SRB8]	2.52 ± 0.13	2.72 ± 0.18	2.47 ± 0.078	2.36 ± 0.14
FGAKSDENKAGATSKPA [YJL041W/NSP1]	3.25 ± 0.11	3.23 ± 0.1	3.25 ± 0.086	3.44 ± 0.065
SSNKDLEDEKMKFQESL [SMC4]		2.08 ± 0.26		
PKLLDALNKISKYYPGV [SNU114]	3.08 ± 0.076	2.37 ± 0.072	2.88 ± 0.044	2.8 ± 0.065
EALQYDPQPFLKHVLQL [SNU114]	2.17 ± 0.04	2.53 ± 0.047	2.65 ± 0.038	2.35 ± 0.075
LPKYKEKKAASAKQTAP [MED7]	2.71 ± 0.095	2.97 ± 0.078	2.61 ± 0.066	2.74 ± 0.056
GRENFVYANNPEVSDDG [SIR3]	3.05 ± 0.096	3.08 ± 0.085	3.03 ± 0.068	2.8 ± 0.1
DLISKKTKTSLLPTIKR [RPR2]	3.09 ± 0.079	2.58 ± 0.073	2.74 ± 0.063	2.58 ± 0.086
YGEYPPTKLLVSEVAKI [PRE8]	2.53 ± 0.084	2.81 ± 0.13	2.93 ± 0.078	2.67 ± 0.12
KKFNMGKEFEARNLIED [RPC53]	2.81 ± 0.11	2.72 ± 0.087	2.56 ± 0.14	3.04 ± 0.083
NPYNTRSNKIKVVKTPG [RPL34A]	1.98 ± 0.065	1.93 ± 0.045	2.15 ± 0.039	2.16 ± 0.08
AGTTDNSFIKANLPWLG [RPN2]	1.48 ± 0.1	1.72 ± 0.064	1.36 ± 0.065	1.39 ± 0.086
NEAEQVYLSLLDKDSSQ [RPN6]	3.03 ± 0.2	3.29 ± 0.076	3.45 ± 0.22	

Source: the supplement of paper PMC9732359
